# Measurements as given in patent US12552866B2, “Internalizing binding molecules targeting receptors involved in cell proliferation or in cell differentiation” (LinXis B.V., priority 2019, dated 2026).
# Assays:
# [1] = tested on: rIGF2R expressing SCC cells; assay: Kinetic internalization assay on rIGF2R expressing SCC cells; assay type: cell-based, rat; conditions: 10 nM IRD800CW conjugate, 37° C., up to 12 minutes
# Experimental: (§1) (FIG. 10D). […] The differences in internalization are possibly related to the differences in IGF2R expression levels on the target cells. […] Summarizing, biparatopic 13F11-13E8 clearly internalizes in cells expressing hIGF2R on the cell surface. The rate of internalization (endocytic rate constant, ke) of biparatopic constructs 13F11-13E8 and 13E8-13F11 was determined with a kinetic internalization assay on SCC-VII cells transfected with hIGF2R and rIGF2R. Briefly, 10 nM of IRD800CW conjugated 13F11-13E8 or 13E8-13F11 (conjugation method as described in example 9.2) was added to hIGF2R expressing SCC cells or rIGF2R expressing SCC cells and incubated at 37° C. for different time points up to 12 minutes. Internalization was then purposely halted by putting the cells on ice. Subsequently, cells were washed with cold PBS and the non-internalized VHH construct (bound fraction) was separated from the internalized construct (internalized fraction) using an acid-wash, as described above, after which the fluorescence of both fractions were measured. Both constructs internalize with similar endocytic rate constants (ke around 1.5 min-1) in the hIGF2R expressing SCC cells (FIG. 17). Internalization was also observed in rIGF2R expressing SCC cells as a clear increase in fluorescence over time can be shown in FIG. 17 (ke around 0.7 min-1).
# activated HSCs LX-2 = assay: Internalization in living LX-2 cells with pHrodo red conjugates; assay type: cell-based, human; conditions: 50 nM pHrodo-red conjugate
# Text: Internalization of monovalent 13F11 and biparatopics 13F11-13E8 and 13E8-13F11 in living activated HSCs LX-2 was visualized using the pHrodo pH dependent probe (ThermoFisher Scientific). The pH probe becomes more fluorescent as the pH of the surroundings decreases accordingly. Endosomes and lysosomes have a pH maintained at 6.5 and 4.5, respectively, compared to cytoplasmic pH of 7.0, and thus internalization of a VHH-pHrodo construct can be visualized when it internalizes via the endosomal pathway. LX-2 cells were incubated at 37° C. for 2 hours with 50 nM of pHrodo-red conjugated 13F11, 13F11-13E8 and 13E8-13F11 (conjugation method as described in example 9.2). Images were taken at 5 min. intervals using a wide-field PEXScope microscope (Nikon) with a mCherry filter and 40× oil objective. […] Additionally, both internalized 13F11-13E8 and 13E8-13F11 accumulate into perinuclear compartments (endosomes/lysosomes).
# hIGF2R-ECD = molecular target: T1, hIGF2R-ECD (Homo sapiens, UniProt P11717); assay: Binding assay / titration ELISA on recombinant hIGF2R-ECD; conditions: construct conjugated to Alexa Fluor 647, direct read out; KD+SEM, n=2; read-out: calculated affinity (KD)
# T1 construct: recombinant human extracellular domain of IGF2R (hIGF2R-ECD)
# Experimental: The 15 unique hIGF2R binders (Example 1.1, FIG. 2) were produced and purified as described in examples 2 and 3. The apparent affinities were determined with binding assays on hIGF2R-ECD. Briefly, three-fold serial VHH dilutions, starting from 1 μM, were added onto hIGF2R-ECD coated plates. After 2 hours of incubation, plates were washed and bound VHH was detected using a VHH-specific IgG antibody, followed by an IRD800CW-conjugated IgG-specific antibody. […] VHH 13F11 was also produced with a C-terminal free cysteine and conjugated using maleimide chemistry to Alexa Fluor 647 (13F11-A647 in FIG. 8A, conjugation method as described in example 9.2). A titration ELISA (direct read out at 647 nm) with this construct was carried out on hIGF2R-ECD to determine whether the affinity was affected after site directed conjugation (FIG. 8B). The KD and Bmax were calculated in Graphpad (version 8.3), using one-site specific binding analysis (FIG. 8C).
# Based on their high affinity and binding to non-overlapping receptor epitopes, VHHs 13F11 and 13E8 were selected for the design of biparatopic and bivalent VHH constructs. Two VHHs were fused with a flexible linker, consisting of three Gly-Gly-Gly-Gly-Ser repeats (FIG. 8A). The sequences were codon optimized for expression in E. coli and obtained as synthesized DNA fragments from GeneArt. The DNA fragments encoding VHHs were cloned into a vector pET28-based vector introducing a C-terminal free cysteine for site-directed conjugation and His6 tag for IMAC purification (FIG. 8A). The constructs were produced and purified as described in example 3. The constructs were conjugated to Alexa Fluor 647 (conjugation method as described in example 9.2) and titration ELISAs on recombinant hIGF2R-ECD (as described in example 4.1) were performed to determine the KD and Bmax (calculated in Graphpad (version 8.3), using one-site specific binding analysis) (FIG. 8C).
# Next, 13F11-13E8 was genetically re-engineered to include an in vivo half-life extender in the form of an albumin binding domain (ABD) as described by Johansson et al (Structure, specificity, and mode of interaction for bacterial albumin-binding modules, J. Biol. Chem. 2002 (277): 8114-8120) and subsequently produced and purified as described in Example 3. Subsequently, 13F11-13E8-ABD was conjugated to IRDye800CW (F11E8-ABD-IRD800, conjugation method as described in example 9.2) and the binding affinities of the biparatopic VHH as well as the ABD unit was determined. […] The binding affinity (KD) of F11-E8-ABD-IRD800 to rat serum albumin (RSA) was 30 nM and to mouse serum albumin (MSA) and human serum albumin (HSA) the binding affinity was approximately 200 nM.
# [2] = tested on: mock transfected NIH 3T3 2.2 cells; assay: Internalization in mock transfected NIH 3T3 2.2 cells; assay type: cell-based; conditions: 25 nM VHH conjugated to Alexa Fluor 647
# Experimental: (§2) To assess if monovalent 13F11 and biparatopic 13F11-13E8 are internalized in the hIGF2R expressing cells, A549 cells (FIG. 16A) and NIH 3T3 2.2 cells transiently transfected with hIGF2R (FIG. 16B) were incubated with 25 nM VHH conjugated to Alexa Fluor 647 (conjugation method as described in example 9.2). A Mouse anti-IGF2R mAb was included to detect IGF2R expression on the hIGF2R transfected cells NIH 3T3 2.2 (FIG. 16B, right column), the mAb was detected with a goat anti-mouse mAb conjugated to Alexa Fluor 555. Additionally, mock transfected NIH 3T3 2.2 cells were incubated with 13F11 and 13F11-13E8 (FIG. 16C). […]
# (§3) (FIG. 10D). […] The rate of internalization (endocytic rate constant, ke) of biparatopic constructs 13F11-13E8 and 13E8-13F11 was determined with a kinetic internalization assay on SCC-VII cells transfected with hIGF2R and rIGF2R. […] Subsequently, cells were washed with cold PBS and the non-internalized VHH construct (bound fraction) was separated from the internalized construct (internalized fraction) using an acid-wash, as described above, after which the fluorescence of both fractions were measured. […] Internalization was also observed in rIGF2R expressing SCC cells as a clear increase in fluorescence over time can be shown in FIG. 17 (ke around 0.7 min-1).
# [3] = tested on: hIGF2R expressing SCC cells; assay: Kinetic internalization assay on hIGF2R expressing SCC cells; assay type: cell-based, human; conditions: 10 nM IRD800CW conjugate, 37° C., up to 12 minutes
# Experimental: as §1
# [4] = In vivo pharmacokinetics in healthy Sprague-Dawley rats (serum ELISA); design: species or system rat; conditions: rat, i.v., approximately 3 mg/kg; LOD approximately 20 nM
# Experimental: The in vivo pharmacokinetic properties of 13F11-13E8-ABD was compared to 13F11-13E8 without the ABD moiety in healthy Sprague-Dawley rats. In brief, rats were dosed intravenously with approximately 3 mg/kg body weight and blood samples were taken at different time points and the concentration of the VHH constructs were determined using an ELISA on immobilized hIGF2R-ECD.
# [5] = tested on: NIH 3T3 2.2 cells transiently transfected with hIGF2R; assay: Internalization in NIH 3T3 2.2 cells transiently transfected with hIGF2R; assay type: cell-based, human; conditions: 25 nM VHH conjugated to Alexa Fluor 647
# Experimental: as §2, §3
# [6] = tested on: A549 cells (IGF2R positive); assay: Internalization in A549 cells (acid wash, confocal); assay type: cell-based, human; conditions: 25 nM VHH conjugated to Alexa Fluor 647
# Experimental: as §2, §3
molecule,measurement,setting,value
"13F11-13E8: biparatopic anti-IGF2R VHH construct, 13F11 and 13E8 fused with (Gly-Gly-Gly-Gly-Ser)3 linker (protein, left off: small tags and cut ends, biparatopic anti-IGF2R VHH construct, 13F11 and 13E8 fused with (Gly-Gly-Gly-Gly-Ser)3 linker) EVQLVESGGRLVQPGDSLRLSCAASGRTFSDNAMGWFRQAPGKERRFVAGISWAGGSTYYSDSVKGRFTISRDNAKNTVYLQMNSLKPEDTAVYYCAAGLRAWVQRMPKDYNYWGQGTQVTVSSGGGGSGGGGSGGGGSEVQLVESGGGLVQAGGSLRLSCAASRSISPMGWYRQAPGKQRELVAIMPSSGPPIYADSVQGRFTISRDNAKNTVYLQMNSLKPEDTAVYYCNVGGGYWGQGTQVTVSS",endocytic rate constant (ke),[1],around 0.7 min-1
same,intracellular fluorescence compared to the monovalent construct,"activated HSCs LX-2; 37° C., from 15 min. onwards",more pronounced increase in intracellular fluorescence
same,rate of internalization compared to 13E8-13F11,activated HSCs LX-2; 40-min. time period,higher rate of internalization
same,Kd,hIGF2R-ECD,2.5 ± 1.87 nM
same,internalization in mock transfected NIH 3T3 2.2 cells,[2],did not internalize
same,endocytic rate constant (ke),[3],around 1.5 min-1
same,clearance from circulation,[4],could not be detected anymore within two hours after injection
same,internalization in hIGF2R transfected NIH 3T3 2.2 cells,[5],did internalise
same,internalization in A549 cells,[6],clearly internalized
